Data published in patent publication US20240116985A1 (published 2024).
Starred links: 1 amine or outer side, 2 acyl side, 3 side chain; linkers in the order of their positions; H or OH if unused. Positions of bridges follow the written chain, without caps; N, C: chain ends. Non-standard residues stand in square brackets, D forms with d. Primed or numbered codes have the meaning given here. PyrS2″ = (S)-3-amino-1-((pent-4-en-1-yloxy)carbonyl)pyrrolidine-3-carboxylic acid (stapling residue), C=CCCCOC(=O)N1CC[C@@](N[*:1])(C(=O)[*:2])C1; B5(4) = 2,2-bis(4-pentenyl)glycine = 2-amino-2-(pent-4-en-1-yl)hept-6-enoic acid (stitching residue), C=CCCCC(CCCC=C)(N[*:1])C(=O)[*:2]; (EtSSPh)AspE = (S)-2-amino-4-oxo-4-(2-(phenyldisulfaneyl)ethoxy)butanoic acid, O=C(C[C@H](N[*:1])C(=O)[*:2])OCCSSc1ccccc1; (EtSSHex)AspE = (S)-2-amino-4-(2-(hexyldisulfaneyl)ethoxy)-4-oxobutanoic acid, CCCCCCSSCCOC(=O)C[C@H](N[*:1])C(=O)[*:2]; B5(3) = 2,2-bis(4-pentenyl)glycine (stitching residue), C=CCCCC(CCCC=C)(N[*:1])C(=O)[*:2]; GluSH = (S)-2-amino-5-mercapto-5-oxopentanoic acid, O=C(CC[C@H](N[*:1])C(=O)[*:2])S[*:3]; B5 = 2-amino-2-(pent-4-en-1-yl)hept-6-enoic acid, C=CCCCC(CCCC=C)(N[*:1])C(=O)[*:2]; Phe(3-COOH) = N[C@@H](Cc1cccc(C(=O)O)c1)C(=O)O; 2F3MeF = Cc1cccc(C[C@H](N[*:1])C(=O)[*:2])c1F; Phe(4-Cl) = N[C@@H](Cc1ccc(Cl)cc1)C(=O)O; Bta = N[C@@H](Cc1csc2ccccc12)C(=O)O; αAllylPro = C=CC[C@@]1(C(=O)O)CCCN1; tBuAla = CC(C)(C)C[C@H](N)C(=O)O; 2Thi = N[C@@H](Cc1cccs1)C(=O)O; 3Thi = N[C@@H](Cc1ccsc1)C(=O)O; S8 = C=CCCCCCC[C@](C)(N)C(=O)O; TfeGA″ = not defined here; hSer = N[C@@H](CCO)C(=O)O

T1: B-cat-Halo (beta-catenin HaloTag NanoBRET construct expressed in HEK293 cells) (UniProt P35222 1-781)
T1 sequence (looked up): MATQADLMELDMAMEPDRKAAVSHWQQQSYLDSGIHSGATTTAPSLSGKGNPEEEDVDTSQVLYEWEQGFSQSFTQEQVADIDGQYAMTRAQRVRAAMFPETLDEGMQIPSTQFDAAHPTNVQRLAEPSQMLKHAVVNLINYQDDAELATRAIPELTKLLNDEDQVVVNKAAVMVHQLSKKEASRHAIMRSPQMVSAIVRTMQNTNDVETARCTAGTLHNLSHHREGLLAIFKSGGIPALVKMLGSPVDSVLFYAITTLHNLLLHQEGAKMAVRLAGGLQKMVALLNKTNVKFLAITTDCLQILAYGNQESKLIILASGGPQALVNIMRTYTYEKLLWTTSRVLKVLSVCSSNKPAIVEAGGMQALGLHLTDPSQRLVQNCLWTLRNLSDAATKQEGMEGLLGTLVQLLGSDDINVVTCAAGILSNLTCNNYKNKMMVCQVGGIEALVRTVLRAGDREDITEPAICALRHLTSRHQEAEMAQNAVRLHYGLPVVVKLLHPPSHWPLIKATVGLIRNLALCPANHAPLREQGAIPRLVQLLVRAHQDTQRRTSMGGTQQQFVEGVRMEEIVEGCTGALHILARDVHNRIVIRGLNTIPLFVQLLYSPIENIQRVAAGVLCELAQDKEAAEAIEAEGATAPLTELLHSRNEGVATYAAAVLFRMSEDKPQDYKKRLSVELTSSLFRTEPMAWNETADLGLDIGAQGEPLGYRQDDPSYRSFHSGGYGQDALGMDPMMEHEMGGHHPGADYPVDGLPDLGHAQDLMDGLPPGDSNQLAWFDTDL

T2: full-length beta-Catenin (Uniprot ID P35222) (Homo sapiens (Human), UniProt P35222 1-781)
T2 construct: the AlphaScreen used a Histidine (Nickel Chelate) detection kit, so a His tag is likely but not described; also called B-Catenin; bCat
T2 sequence: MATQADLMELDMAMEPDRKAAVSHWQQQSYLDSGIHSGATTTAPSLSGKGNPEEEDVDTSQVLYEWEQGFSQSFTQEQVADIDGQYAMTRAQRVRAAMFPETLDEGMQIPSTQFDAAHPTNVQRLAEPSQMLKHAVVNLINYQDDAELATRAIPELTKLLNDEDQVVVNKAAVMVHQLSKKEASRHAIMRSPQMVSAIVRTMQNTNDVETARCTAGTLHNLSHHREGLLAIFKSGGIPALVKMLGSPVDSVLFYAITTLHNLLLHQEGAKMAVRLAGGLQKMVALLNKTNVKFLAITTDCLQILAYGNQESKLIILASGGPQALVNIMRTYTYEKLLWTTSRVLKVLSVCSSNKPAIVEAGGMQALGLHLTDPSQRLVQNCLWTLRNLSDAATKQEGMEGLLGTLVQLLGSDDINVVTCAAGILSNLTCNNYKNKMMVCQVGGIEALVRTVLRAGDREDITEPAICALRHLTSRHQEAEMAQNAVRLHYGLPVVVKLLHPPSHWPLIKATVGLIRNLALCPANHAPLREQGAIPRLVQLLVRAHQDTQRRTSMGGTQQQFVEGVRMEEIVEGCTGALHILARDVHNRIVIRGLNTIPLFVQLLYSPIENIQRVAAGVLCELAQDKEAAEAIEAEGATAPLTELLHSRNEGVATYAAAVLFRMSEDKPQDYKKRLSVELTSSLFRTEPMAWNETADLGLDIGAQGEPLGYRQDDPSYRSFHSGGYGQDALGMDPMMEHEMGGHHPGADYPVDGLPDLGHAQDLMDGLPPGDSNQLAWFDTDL

T3: B-cat-Halo (UniProt P35222 1-781)
T3 sequence (looked up): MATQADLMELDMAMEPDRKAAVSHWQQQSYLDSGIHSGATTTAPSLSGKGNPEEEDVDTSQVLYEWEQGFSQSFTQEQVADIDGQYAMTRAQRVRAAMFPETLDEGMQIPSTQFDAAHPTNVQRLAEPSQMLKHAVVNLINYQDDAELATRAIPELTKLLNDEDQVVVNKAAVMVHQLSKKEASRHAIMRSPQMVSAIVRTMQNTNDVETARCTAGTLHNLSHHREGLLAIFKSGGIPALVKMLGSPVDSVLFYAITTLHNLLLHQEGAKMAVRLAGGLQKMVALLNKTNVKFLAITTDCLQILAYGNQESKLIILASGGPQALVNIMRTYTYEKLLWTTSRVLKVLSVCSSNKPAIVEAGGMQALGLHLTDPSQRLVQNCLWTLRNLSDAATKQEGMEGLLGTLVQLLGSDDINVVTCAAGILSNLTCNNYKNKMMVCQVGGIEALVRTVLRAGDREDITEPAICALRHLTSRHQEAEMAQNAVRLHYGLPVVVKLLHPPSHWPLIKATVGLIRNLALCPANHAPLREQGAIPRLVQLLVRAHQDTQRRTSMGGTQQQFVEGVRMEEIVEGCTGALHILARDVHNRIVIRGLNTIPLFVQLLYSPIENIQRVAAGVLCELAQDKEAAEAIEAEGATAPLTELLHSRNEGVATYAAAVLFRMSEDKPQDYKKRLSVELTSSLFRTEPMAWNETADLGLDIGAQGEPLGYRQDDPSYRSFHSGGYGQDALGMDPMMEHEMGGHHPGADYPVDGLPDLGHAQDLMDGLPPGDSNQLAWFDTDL


Key:
[1] = molecular target: T1, B-cat-Halo (beta-catenin HaloTag …); experiment: cell-based or functional assay
[2] = molecular target: T2, full-length beta-Catenin (Uniprot ID …); experiment: AlphaScreen competition vs biotin-TCF4(10-53) on full-length beta-catenin
In short: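 Titrated peptide was preincubated 15 minutes at 20° C, then donor and acceptor beads were added for 60 minutes at 20° C protected from light. Reads were done in duplicate, and data were fitted to a 1:1 binding model with Hill slope; concentrations are final.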

[3] = molecular target: T2, full-length beta-Catenin (Uniprot ID …); experiment: FP competition vs 5FAM-TCF4(10-53) probe on full-length beta-catenin
Description: The plate was incubated protected from light for 60 minutes at 20° C. prior to read. Reads were performed on a CLARIOstar plate reader (BMG Labtech) in duplicate, and data were fitted to a 1:1 binding model with hill slope using an in-house script. All provided concentrations are final concentrations.

B-cat-Halo = molecular target: T3, B-cat-Halo; experiment: cell-based or functional assay

NanoBRET Abs IC50 [1] | EC50 [2] | EC50 [3] | Binder | further results
> 20000 nM | – | – | Ac-[αAllylPro]D[tBuAla][B5(4)][(EtSSHex)AspE]DAAFL[PyrS2″][3Thi][Bta]Q-NH2 (staple 1-4, 4-11) [I-1961] | –
28500 nM | – | – | Ac-[αAllylPro]D[tBuAla][B5(4)]D[GluSH]AAFL[PyrS2″][3Thi][Bta]Q-NH2 (staple 1-4, 4-11; also: isomer composition, later eluting HPLC peak) [I-1949] | –
7900 nM | – | – | Ac-[αAllylPro]D[tBuAla][B5(4)]D[TfeGA″]AAF[(NHBn)GlnR][PyrS2″][3Thi][Bta]Q-NH2 (staple 1-4, 4-11; reading uncertain) [I-1942] | –
– | 53 nM | 1310 nM | Ac-[αAllylPro]DA[B5(4)]DDAA[2Thi]V[S8]FWQ-NH2 (staple 1-4, 4-11, Ac-PL3-Asp-Ala-B5-Asp-Asp-Ala-Ala-2Thi-Val-S8-Phe-Trp-Gln-NH2; stapled peptide composition) [I-325] | –
– | 121 nM | – | XDAXDDAAFVXFWQ (not fully specified; N-terminal acetyl (Ac); C-terminal amide (NH2); PL3 at 1, B5 at 4, S8 at 11, 2FF at 12; stapled PL3-B5 and B5-S8, Ac-PL3-Asp-Ala-B5-Asp-Asp-Ala-Ala-Phe-Val-S8-2FF-Trp-Gln-NH2; stapled peptide composition) [I-318] | –
> 20000 nM | – | – | Ac-[αAllylPro][(EtSSPh)AspE][tBuAla][B5(4)]DDAAFL[PyrS2″][3Thi][Bta]Q-NH2 (staple 1-4, 4-11; also: isomer composition, earlier eluting HPLC peak) [I-1952] | –
20400 nM | – | – | Ac-[αAllylPro][(EtSSHex)AspE][tBuAla][B5(4)]DDAAFL[PyrS2″][3Thi][Bta]Q-NH2 (staple 1-4, 4-11) [I-1960] | –

The remaining lines, values behind:

Binder | NanoBRET Abs IC50 [1] | EC50 [2] | EC50 [3] | further results
XDAXDDAAFVXFWQ (not fully specified; N-terminal acetyl (Ac); C-terminal amide (NH2); PL3 at 1, B5 at 4, S8 at 11, 3ClF (printed 3C1F) at 12; stapled PL3-B5 and B5-S8, Ac-PL3-Asp-Ala-B5-Asp-Asp-Ala-Ala-Phe-Val-S8-3C1F-Trp-Gln-NH2; stapled peptide composition) [I-311] | – | 1240 nM | – | –
XDAXDDAAFVXFWA (not fully specified; N-terminal acetyl (Ac); C-terminal amide (NH2); PL3 at 1, B5 at 4, S8 at 11; stapled PL3-B5 and B5-S8, Ac-PL3-Asp-Ala-B5-Asp-Asp-Ala-Ala-Phe-Val-S8-Phe-Trp-Ala-NH2; stapled peptide composition) [I-291] | – | 327 nM | 3130 nM | –
Ac-[αAllylPro]DA[B5]DDAAFQ[S8]FWA-NH2 (staple 1-4, 4-11, Ac-PL3-Asp-Ala-B5-Asp-Asp-Ala-Ala-Phe-Gln-S8-Phe-Trp-Ala-NH2; stapled peptide composition) [I-316] | – | 136 nM | 3980 nM | –
XDAXDDAAFVXFWA (not fully specified; N-terminal acetyl (Ac); C-terminal amide (NH2); PL3 at 1, B5 at 4, S8 at 11; stapled PL3-B5 and B5-S8, Ac-PL3-Asp-Ala-B5-Asp-Asp-Ala-Ala-Phe-Val-S8-Phe-Trp-Ala-NH2; stapled peptide composition) [I-292] | – | 187 nM | 1870 nM | –
Ac-[αAllylPro]D[hSer][B5(4)]DDAAFQ[S8]F[Bta]A-NH2 (staple 1-4, 4-11, Ac-PL3-Asp-Hse-B5-Asp-Asp-Ala-Ala-Phe-Gln-S8-Phe-BztA-Ala-NH2; stapled peptide composition) [I-299] | – | 189 nM | 1300 nM | –
XDAXDDAAFVXFWQ (not fully specified; N-terminal acetyl (Ac); C-terminal amide (NH2); PL3 at 1, B5 at 4, S8 at 11, 4ClF (printed 4C1F) at 12; stapled PL3-B5 and B5-S8, Ac-PL3-Asp-Ala-B5-Asp-Asp-Ala-Ala-Phe-Val-S8-4C1F-Trp-Gln-NH2; stapled peptide composition) [I-313] | – | 3600 nM | – | –
Ac-[αAllylPro]D[tBuAla][B5(3)]D[Phe(3-COOH)]AAFL[PyrS2″][2F3MeF][Phe(4-Cl)]S-NH2 (staple 1-4, 4-11) [I-2222] | – | – | – | NanoBRET Abs IC50 (B-cat-Halo): 11700 nM
XDAXDDAAFVXFWQ (not fully specified; N-terminal acetyl (Ac); C-terminal amide (NH2); PL3 at 1, B5 at 4, S8 at 11, 4ClF (printed 4C1F) at 12; stapled PL3-B5 and B5-S8, Ac-PL3-Asp-Ala-B5-Asp-Asp-Ala-Ala-Phe-Val-S8-4C1F-Trp-Gln-NH2; stapled peptide composition) [I-312] | – | ≥ 10000 nM | – | –
